This is an account of results in patent US7964598B2 (The J. David Gladstone Institutes, priority 1995, dated 2011).

The test system of this test is apoE4-expressing Neuro-2a cells. The test is described as follows: Neurite outgrowth, apoE4-expressing Neuro-2a cells. To be noted: in the presence of β-VLDL. The format is cell-based, mouse. On the procedure: Cells were grown in DME/F12 containing 10% FBS and G418 (400 μg/ml). On the day the experiment was initiated, the cells were subcultured into 35 mm plates in DME/F12 with 10% FBS. The cells were allowed to adhere to the plastic plates for 2 hr at 37° C., and then the culture medium was changed to N2 medium with or without increasing concentrations of lipoproteins. After 48 hr at 37° C., the media were replaced with the same medium (with or without lipoproteins), and the incubation was continued for an additional 48 hr. […] Neurons were imaged in fluorescence mode with a confocal laser scanning system (MRC-600, BioRad, Hercules, Calif.), and the images were digitized with an Image-1/AT image analysis system (Universal Images, West Chester, Pa.). The neuronal images were coded before characterization, and the following variables were measured: 1) number of neurites (defined as cell surface projections at least one-half the cell diameter) on each neuron; 2) neurite branching (the number of branch points on each neurite); and 3) neurite extension (the length of the longest neurite, measured from the cell body). Typically, in each experiment the neurites of 20 to 40 neurons per plate were measured and the results preserved as the mean±S.E.M. […]

B1: lactoferrin: blocks binding of lipoproteins to both HSPG and LRP (protein, UniProt P02788 20-710, looked up)
Lactotransferrin: GRRRSVQWCAVSQPEATKCFQWQRNMRKVRGPPVSCIKRDSPIQCIQAIAENRADAVTLDGGFIYEAGLAPYKLRPVAAEVYGTERQPRTHYYAVAVVKKGGSFQLNELQGLKSCHTGLRRTAGWNVPIGTLRPFLNWTGPPEPIEAAVARFFSASCVPGADKGQFPNLCRLCAGTGENKCAFSSQEPYFSYSGAFKCLRDGAGDVAFIRESTVFEDLSDEAERDEYELLCPDNTRKPVDKFKDCHLARVPSHAVVARSVNGKEDAIWNLLRQAQEKFGKDKSPKFQLFGSPSGQKDLLFKDSAIGFSRVPPRIDSGLYLGSGYFTAIQNLRKSEEEVAARRARVVWCAVGEQELRKCNQWSGLSEGSVTCSSASTTEDCIALVLKGEADAMSLDGGYVYTAGKCGLVPVLAENYKSQQSSDPDPNCVDRPVEGYLAVAVVRRSDTSLTWNSVKGKKSCHTAVDRTAGWNIPMGLLFNQTGSCKFDEYFSQSCAPGSDPRSNLCALCIGDEQGENKCVPNSNERYYGYTGAFRCLAENAGDVAFVKDVTVLQNTDGNNNEAWAKDLKLADFALLCLDGKRKPVTEARSCHLAMAPNHAVVSRMDKVERLKQVLLHQQAKFGRNGSDCPDKFCLFQSETKNLLFNDNTECLARLHGKTTYEKYLGPQYVAGITNLKKCSTSPLLEACEFLRK
Regarding B1, the “inhibition of neurite extension seen in the apoE4-expressing cells” value is “blocked the effects of apoE3 and apoE4 on neurite outgrowth”.
